Experimental data published in patent US20190256588A1 (BEIJING HANMI PHARM, published 2019).
Substitutions are numbered along the chain they refer to.

B1: monoclonal antibody secreted by Clone No. 88 (antibody, V domains shown)
VH: DVQVQESGPGLVKPSQSLSLTCTVTGNSITSYYAWNWIRQFPGNKLEWMGYITYSGTTSYNPSLKSRISITRDTSKNQFFLQLNSVTTEDTATYYCAREEYDDIYAVDYWGQGTSVTVSS
VL: IIVMTQTPLSLPVSLGDQASISCRSSQSLVHSNGNTYLHWYLQKPGQSPKLLIYKVYNRFSGVPDRFSGSGSGTDFTLKISRVEAEDLGVYFCSQSTHFPTFGGGTKLEIK
notes: Murine hybridoma antibody tested as culture supernatant; also called murine anti-human IL-17A monoclonal antibody
B2: anti-human IL-17A humanized monoclonal antibody AS15799 (antibody, human IgG1, kappa, V domains shown)
VH: QVQVQESGPGLVKPSETLSLTCTVSGNSITSYYAWNWIRQPPGKGLEWMGYITYSGTTSYNPSLKSRVTISRDTSKNQFSLKLSSVTAADTAVYYCAREEYDDIYAVDYWGQGTLVTVSS
VL: IIVMTQSPLSLPVTLGQPASISCRSSQSLVHSNGNTYLHWYQQRPGQSPRRLIYKVYNRFSGVPDRFSGSGSGTDFTLKISRVEAEDVGVYYCSQSTHFPTFGQGTRLEIKR
B3: anti-human IL-17A humanized monoclonal antibody AS15802 (antibody, human IgG1, kappa, V domains shown)
VH: B2 VH with V4L
VL: B2 VL with R51L, Y92F
B4: anti-human IL-17A humanized monoclonal antibody AS15803 (antibody, human IgG1, kappa, V domains shown)
VH: B2 VH with V68I, R72V
VL: B2 VL with R51L, Y92F
B5: anti-human IL-17A humanized monoclonal antibody AS15805 (antibody, human IgG1, kappa, V domains shown)
VH: B2 VH with V68I
VL: B2 VL with I1D
B6: anti-human IL-17A humanized monoclonal antibody AS15810 (antibody, human IgG1, kappa, V domains shown)
VH: B2 VH with R72V
VL: B2 VL with I1D, I2V, R51L
B7: anti-human IL-17A humanized monoclonal antibody AS15815 (antibody, human IgG1, kappa, V domains shown)
VH: B2 VH with V68I
VL: B2 VL with I1D, I2V, Y41F, R51L
B8: anti-human IL-17A humanized monoclonal antibody AS15820 (antibody, human IgG1, kappa, V domains shown)
VH: B2 VH with V4L, R72V
VL: B2 VL with I1D, R51L, Y92F

Target: T1, recombinant human IL-17A (human, UniProt Q16552 24-155)
T1 construct: also called IL-17A antigen
T1 sequence (Q16552 24-155 limits assumed): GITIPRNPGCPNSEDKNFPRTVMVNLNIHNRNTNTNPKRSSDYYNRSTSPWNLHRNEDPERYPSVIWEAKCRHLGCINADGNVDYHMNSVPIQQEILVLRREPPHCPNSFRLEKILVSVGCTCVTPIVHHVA
Assay: ELISA, recombinant human IL-17A coated at 1 µg/mL, HRP anti-mouse IgG, OD450nm
Protocol: The plate was washed five times with PBST. […] The plate was washed five times with PBST. […] The plate was washed five times with PBST. 100 μL/well of colorimetric substrate TMB was added and incubated at room temperature for 10 minutes. Color development was terminated by adding 100 μL/well of 1 M H₂SO₄. The absorbance at 450 nm was read on a microplate reader.

| Binder | EC50 [nM] |
| --- | --- |
| B1 | 0.165 |

Target: T1, recombinant human IL-17A
Assay: ELISA, recombinant human IL-17A coated at 1 µg/mL, HRP anti-human IgG, OD450nm
Protocol: The antigen binding activity of humanized anti-human IL-17A monoclonal antibody was determined by ELISA. Recombinant human IL-17A (purchased from Sino Biological Inc.) was coated on a 96-well high-absorbing ELISA plate with a carbonate buffer solution with pH 9.6, the coating concentration was 1 μg/mL, the coating amount was 100 μL per well, and the coating was carried at 4° C. out overnight. The plate was washed five times with PBST and blocked with 300 μL/well of PBST containing 1% BSA and incubated at 25° C. for 1 hour. The plate was washed five times with PBST. […] The plate was washed five times with PBST. Then, horseradish peroxidase-labeled anti-human IgG antibody (Chemicon, Catalog Number AP309P) 1:2000 diluted in PBST containing 1% BSA was added, 100 μL was added to each well, incubated at 25° C. for 1 hour. The plate was washed five times with PBST. 100 μL/well of colorimetric substrate TMB was added and incubated at room temperature for 10 minutes. Color development was terminated by adding 100 μL/well of 1 M H2SO₄. The absorbance at 450 nm was read on a microplate reader.

| Binder | EC50 [nM] |
| --- | --- |
| B2 | 0.091 |
| B3 | 0.088 |
| B4 | 0.087 |
| B5 | 0.082 |
| B6 | 0.083 |
| B7 | 0.077 |
| B8 | 0.089 |
